First the molecules themselves.
B1: HDV Ribozyme (parent)
chain: GGCCGGCAUGGUCCCAGCCUCCUCGCUGGCGCCGGCUGGGCAACAUUCCGAGGGGACCGUCCCCUCGGUAAUGGCGAAUGGGACCCA

The variants in this data set derive from B1. The data set is described as follows: self-cleavage, relative activity (ratio to wild type); higher = more cleavage; co-transcriptional.
As for GGCCGGCCUGGUCCCAGCCUCCUCGCUGGCGCCGGCUGGCCAACAUUCCGAGGGGACCGUCCCCUCGGUAAUGGCGAAUGGGACCCA [A8C G40C], the self-cleavage came to 0.242. With GGCCGGCCUGGUCCCAGCCUCCUCGCUGGCGCCGGCUGGUCAACAUUCCGAGGGGACCGUCCCCUCGGUAAUGGCGAAUGGGACCCA [A8C G40U], the self-cleavage is 0.345. Then GGCCGGCGUGGUCCCAGCCUCCUCGCUGGCGCCGCCUGGGCAACAUUCCGAGGGGACCGUCCCCUCGGUAAUGGCGAAUGGGACCCA [A8G G35C], with 0.0426; and GGCCGGCGUGGUCCCAGCCUCCUCGCUGGCGCCGACUGGGCAACAUUCCGAGGGGACCGUCCCCUCGGUAAUGGCGAAUGGGACCCA [A8G G35A], with 0.332; and GGCCGGCGUGGUCCCAGCCUCCUCGCUGGCGCCGGCUGGGCAACAUUCCGAGGUGACCGUCCCCUCGGUAAUGGCGAAUGGGACCCA [A8G G54U], with 0.906.

As for GGCCGGCCUGGUCCCAGCCUCCUCGCUGGCGCCGGCUGGGCAACAUGCCGAGGGGACCGUCCCCUCGGUAAUGGCGAAUGGGACCCA [A8C U47G], the self-cleavage turned out to be 0.795.

With GGCCGGCGUGGUCCCAGCCUCCUCGCUGGCGCCGGCUGGGCAACAUUCCGAGGGAACCGUCCCCUCGGUAAUGGCGAAUGGGACCCA [A8G G55A], the self-cleavage stood at 0.655.

With GGCCGGCCUGGUCCCAGCCUCCUCGCUGGCGCCGGCUGGGCAACAUUCCGAGUGGACCGUCCCCUCGGUAAUGGCGAAUGGGACCCA [A8C G53U], the self-cleavage came to 0.831. In the case of GGCCGGCCUGGUCCCAGCCUCCUCGCUGGCGCCGGCUGGGCAACAUUCCGAGAGGACCGUCCCCUCGGUAAUGGCGAAUGGGACCCA [A8C G53A] it was 0.846; in that of GGCCGGCCUGGUCCCAGCCUCCUCGCUGGCGCCGGCUUGGCAACAUUCCGAGGGGACCGUCCCCUCGGUAAUGGCGAAUGGGACCCA [A8C G38U], 0.0875. In the case of GGCCGGCGUGGUCCCAGCCUCCUCGCUGGCGCCGGCUGGGCAACAUUCCGAGGGGACCGUCCCCUCGGUCAUGGCGAAUGGGACCCA [A8G A70C] it was 0.519. In the case of GGCCGGCGUGGUCCCAGCCUCCUCGCUGGCGCCGGCUGGGCAACAUUCCAAGGGGACCGUCCCCUCGGUAAUGGCGAAUGGGACCCA [A8G G50A] it was 1.03. GGCCGGCGUGGUCCCAGCCUCCUCGCUGGCGCCGGCUGGGCAACAUUCCCAGGGGACCGUCCCCUCGGUAAUGGCGAAUGGGACCCA [A8G G50C]: the self-cleavage was determined as 1.17.

Consider GGCCGGCCUGGUCCCAGCCUCCUCGCUGGCGCCGGCUGGGCAACAUUCCGAGGGGACCGUCCCCUCGGUAAUGGCGAAUGGUACCCA [A8C G82U], for which the self-cleavage came out at 0.116.

GGCCGGCCUGGUCCCAGCCUCCUCCCUGGCGCCGGCUGGGCAACAUUCCGAGGGGACCGUCCCCUCGGUAAUGGCGAAUGGGACCCA [A8C G25C]: the self-cleavage is 0.

As for GGCCGGCCUGGUCCCAGCCUCCUCUCUGGCGCCGGCUGGGCAACAUUCCGAGGGGACCGUCCCCUCGGUAAUGGCGAAUGGGACCCA [A8C G25U], the self-cleavage stood at 0.138. On to GGCCGGCCUGGUCCCAGCCUCCUCGCUGGCGCCGACUGGGCAACAUUCCGAGGGGACCGUCCCCUCGGUAAUGGCGAAUGGGACCCA [A8C G35A], for which the self-cleavage came out at 0.142. Then GGCCGGCGUGGUCCCAGCCUCCUCGCUGGCGCCGGCUGGGCAACAUUCCGAGGGGACCGUCCCCUCCGUAAUGGCGAAUGGGACCCA [A8G G67C], with 0.665; and GGCCGGCGUGGUCCCAGCCUCCUCGCUUGCGCCGGCUGGGCAACAUUCCGAGGGGACCGUCCCCUCGGUAAUGGCGAAUGGGACCCA [A8G G28U], with 0.185; and GGCCGGCGUGGUCCCAGCCUCCUCGCUGGCGCCGGCUGGGCCACAUUCCGAGGGGACCGUCCCCUCGGUAAUGGCGAAUGGGACCCA [A8G A42C], with 0.0573. In the case of GGCCGGCGUGGUCCCAGCCUCCUCGCUGGCGCCGGCUGGGCAACAUUCCGAGGGGACCGUCCCCUCGGUAAUGGCGAGUGGGACCCA [A8G A78G] it was 0.128; in that of GGCCGGCCUGGUCCCAGCCUCCUCGCUGGCGCCGGCUGGGCAACAUUCCGAGGGGACCGUCCCCUCGGUAAUGACGAAUGGGACCCA [A8C G74A], 0.314; in that of GGCCGGCCUGGUCCCAGCCUCCUCGCUGGCGCCGGCUGGGCAACAAUCCGAGGGGACCGUCCCCUCGGUAAUGGCGAAUGGGACCCA [A8C U46A], 0.217.

Take GGCCGGCGUGGUCCCAGCCUCCUCGCUGUCGCCGGCUGGGCAACAUUCCGAGGGGACCGUCCCCUCGGUAAUGGCGAAUGGGACCCA [A8G G29U]: the self-cleavage is 0. Turning to GGCCGGCCUGGUCCCAGCCUCCUCGCUGGCGCCGGCUGGGCAACAUUCCGAGGGGACCUUCCCCUCGGUAAUGGCGAAUGGGACCCA [A8C G59U], the self-cleavage is 0.804.

For the variant GGCCGGCGUGGUCCCAGCCUCCUCGCUGGCGCCGGCUGGGCAACAUUCCGAGGGGACCGUCCCCUCGCUAAUGGCGAAUGGGACCCA [A8G G68C], the self-cleavage came to 1.06. In the case of GGCCGGCGUGGUCCCAGCCUCCUCGCUGGCGCCGGCUGGGCAAGAUUCCGAGGGGACCGUCCCCUCGGUAAUGGCGAAUGGGACCCA [A8G C44G] it was 0.499. Then GGCCGGCGUGGUCCCAGCCUCCUCGCUGGCGCCGGCUGGGCAAUAUUCCGAGGGGACCGUCCCCUCGGUAAUGGCGAAUGGGACCCA [A8G C44U], with 0.475; and GGCCGGCGUGGUCCCAGCCUCCUCGCUGGCGCCGGCUGGGCAAAAUUCCGAGGGGACCGUCCCCUCGGUAAUGGCGAAUGGGACCCA [A8G C44A], with 0.665. For the variant GGCCGGCCUGGUCCCAGCCUCCUCGCUGGCGCCGGCUGGGCAACAUUCCGAGGGGACCGUCCCCUCGGUAAUAGCGAAUGGGACCCA [A8C G73A], the self-cleavage is 0.256.

In the case of GGCCGGCCUGGUCCCAGCCACCUCGCUGGCGCCGGCUGGGCAACAUUCCGAGGGGACCGUCCCCUCGGUAAUGGCGAAUGGGACCCA [A8C U20A], the self-cleavage is 0.0615. Then GGCCGGCGUGGUCCCAGCCUCCUCGCUGGCGCCGGCUGGGCAACAUUCCGAGGGGACCGUCCCCUCGGUAAUGGCGCAUGGGACCCA [A8G A77C], with 0.277.

The record behind these values is the RNAGym collection of RNA variant scans (doi:10.7554/elife.80360).
